Test results from PMC4655355, “Structural insights into YfiR sequestering by YfiB in Pseudomonas aeruginosa PAO1” (Scientific Reports, 2015).

B2: YfiR(C71S) (domain or fragment)
chain: DDARTSIEQRSNAVSQVLLGIFSYVRWPKEPAVLQLSVVGPTEYADGLLRGMVQANGRRVHAERRAVDNPDLGTLCNVIYLGVVDERERQQVFRSLAGHPVLSISERGTECSVGSMFCLNVGGPRITFEANLDSIARSGVRVHPSVLKLARRQATP
notes: YfiR (PA1121) of Pseudomonas aeruginosa PAO1, residues 35-190, with C71S; the methods describe only the wild-type construct; also called C71S mutant of YfiR; not shown: Trx, N-terminal, cleaved
B3: YfiR (residues 35–190) (domain or fragment)
chain: DDARTSIEQRSNAVSQVLLGIFSYVRWPKEPAVLQLCVVGPTEYADGLLRGMVQANGRRVHAERRAVDNPDLGTLCNVIYLGVVDERERQQVFRSLAGHPVLSISERGTECSVGSMFCLNVGGPRITFEANLDSIARSGVRVHPSVLKLARRQATP
notes: YfiR (PA1121) of Pseudomonas aeruginosa PAO1, residues 35-190; the N-terminal 34 residues (signal peptide) left out; cloned in pET-32a; purified on Ni-NTA, tag removed with PPase; also called PA1121; wild-type YfiR; source: E. coli, purified (Ni-NTA, ResourceS, Superdex75); not shown: Trx, N-terminal, cleaved

Experiments:
[1] = molecular target: YfiB W55L (Pseudomonas aeruginosa PAO1) (UniProt Q9I4L6); experiment: AUC; single purified proteins, 400 μL at 3 mg ml^-1 in 20 mM Tris-HCl, 200 mM NaCl; 42,000 rpm, 277 K, interference detection; SEDFIT
[2] = molecular target: the molecule itself; experiment: as above
[3] = molecular target: the molecule itself; experiment: crystal structure; YfiR(C71S)-YfiB(59–168) complex, 1.97 Å; proteins mixed 1:1; 0.1 M HEPES pH 7.5, 1.8 M ammonium sulfate, 293 K
[4] = molecular target: the molecule itself; experiment: AUC; YfiB-YfiR complex at 10 mg ml^-1 in 20 mM Tris-HCl, 200 mM NaCl; 42,000 rpm, 277 K, interference detection; SEDFIT
YfiR (residues 35–190) = molecular target: B3; experiment: as above; details: both partners purified
YfiR(C71S) = molecular target: B2; experiment: crystal structure; YfiR(C71S)-YfiB(59–168) complex, 1.97 Å; proteins mixed 1:1; 0.1 M HEPES pH 7.5, 1.8 M ammonium sulfate, 293 K; details: both partners purified

With “YfiB W55L (from UniProt Q9I4L6 27-168) (domain or fragment)” as the molecule, how does the stoichiometry N [1] read?
The stoichiometry N was 2.

B1: YfiB(27–168) (domain or fragment)
chain: QTKPPQTGLSAEQIAVLQEQGFELRDEGWEFGMSSKVLFGNNLDRLNPDSRNTLTKIARALLAVDIDKVRLEGHTDNYGDEGYNQKLSERRAESVAAVFREAGMPAANIEVRGLGMSKPVADNKTRAGRSENRRVAIIVPAE
notes: signal peptide 1-25 and lipid acceptor Cys26 left out; cloned in pGEX-6p-1; GST removed with PPase on the resin; also called PA1119; longer YfiB construct; source: E. coli, purified (GST column, Hitrap Q, Superdex75)
B1 was tested. Which “stoichiometry N” value [2] did it give?
Its value is 2.

Does B2 bind [3]?
Result: binds

How did the “stoichiometry N” value [4] turn out when B3 was run?
The value was 2.

B4: YfiB(59–168) (domain or fragment)
chain: MSSKVLFGNNLDRLNPDSRNTLTKIARALLAVDIDKVRLEGHTDNYGDEGYNQKLSERRAESVAAVFREAGMPAANIEVRGLGMSKPVADNKTRAGRSENRRVAIIVPAE
notes: cloned in pET-32a; tag removed with PPase on the resin; also called shorter YfiB construct; source: E. coli, purified (Ni-NTA, Hitrap S, Superdex75)
With B4 as the molecule, how does the “stoichiometry N” value (YfiR (residues 35–190)) read?
The value was 1 YfiB per YfiR (2:2).

Does B4 bind (YfiR(C71S))?
Result: binds
